# In patent US20130344070A1 (SORRENTO THERAPEUTICS, published 2013):
# How the values were obtained:
# [1] = target: T1, human CCR2 (CC-Chemokine Receptor 2) (human, UniProt P41597 1-374); experiment: flow cytometry on CHO-huCCR2 cells, PE anti-human IgG
# T1 construct: whole, on cells; also called huCCR2; CHO-huCCR2
# Procedure: The data in FIG. 1 illustrates in vitro data for cellular binding EC₅₀ measurements. […] In this example, CHO-CCR2 cells were lifted from culture flasks using non-enzymatic Cell Dissociation Buffer—PBS based (Life Technologies #13151-014). Cells were resuspended in FACS Buffer (2% Fetal Bovine Serum in PBS) at 1×10⁶ cells/ml and 100 μl (1×10⁵ cells) were aliquoted into the wells of a 96-well plate. Plated cells were spun down and the supernatant discarded. Cells were resuspended in 50 μl FACS Buffer containing the indicated concentrations of CCR2 D1 IgG in triplicate (FIG. 1). Plates were incubated for 1 hr at 4° C., then washed 1× with FACS Buffer. Cells were resuspended in 50 μl goat anti-human IgG (γ-chain specific)-PE conjugated secondary antibody (Southern Biotech #2040-09) diluted 1:500 in FACS Buffer. Cells were further incubated for 30 min at 4° C. and then washed 1× with FACS Buffer. The cells were resuspended in a final volume of 25 μl FACS Buffer and analyzed using the Intellicyt Flow Cytometer. Median fluorescence in the FL-2H channel was determined using FlowJo software and EC₅₀ value was determined by plotting the data in GraphPad Prism and analyzing using a variable slope non-linear regression.
# [2] = target: T2, murine CCR2 (murine, UniProt P51683 1-373); experiment: cell-based or functional assay
# T2 sequence (P51683 whole entry): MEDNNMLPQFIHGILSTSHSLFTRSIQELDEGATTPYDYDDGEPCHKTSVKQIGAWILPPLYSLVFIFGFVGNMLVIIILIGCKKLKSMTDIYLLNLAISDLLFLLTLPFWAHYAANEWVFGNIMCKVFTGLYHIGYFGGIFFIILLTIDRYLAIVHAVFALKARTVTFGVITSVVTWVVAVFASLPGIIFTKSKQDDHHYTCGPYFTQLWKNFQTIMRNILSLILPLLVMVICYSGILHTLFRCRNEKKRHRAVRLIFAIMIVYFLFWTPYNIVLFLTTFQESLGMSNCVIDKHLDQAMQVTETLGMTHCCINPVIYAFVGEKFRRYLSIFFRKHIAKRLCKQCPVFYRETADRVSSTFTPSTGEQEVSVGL
# [3] = target: T1, human CCR2 (CC-Chemokine Receptor 2); experiment: cell-based or functional assay
# [4] = target: T2, murine CCR2; experiment: flow cytometry on WEHI 274.1 cells (murine CCR2), PE anti-human IgG
# Procedure: In this example, WEHI 274.1 cells were resuspended in FACS Buffer (2% Fetal Bovine Serum in PBS) at 1×10⁶ cells and […] of cell suspension was aliquoted into the wells of a 96-well plate. Plated cells were spun down and the supernatant discarded. Cells were resuspended in 30 μl FACS Buffer containing serially diluted anti-CCR2 IgGs in triplicate. Plates were incubated for 1 hr at 4° C., then washed 2× with FACS Buffer. Cells were resuspended in 50 μl goat anti-human IgG (γ-chain specific)-PE conjugated secondary antibody (Southern Biotech #2040-09) diluted 1:500 in FACS Buffer, incubated for 30 min at 4° C. and then washed 1× with FACS Buffer. The cells were resuspended in a final volume of 30 μl FACS Buffer and analyzed using the Intellicyt Flow Cytometer. Median fluorescence in the FL-2H channel was determined using FlowJo software and EC₅₀ values were determined by plotting the data in GraphPad Prism and analyzed using a variable slope non-linear regression.
# [5] = target: T1, human CCR2 (CC-Chemokine Receptor 2); experiment: cell-based or functional assay; remark: listed apart in the source
# [6] = target: T1, human CCR2 (CC-Chemokine Receptor 2); experiment: cell-based or functional assay; remark: listed apart in the source
# T1 sequence (P41597 whole entry): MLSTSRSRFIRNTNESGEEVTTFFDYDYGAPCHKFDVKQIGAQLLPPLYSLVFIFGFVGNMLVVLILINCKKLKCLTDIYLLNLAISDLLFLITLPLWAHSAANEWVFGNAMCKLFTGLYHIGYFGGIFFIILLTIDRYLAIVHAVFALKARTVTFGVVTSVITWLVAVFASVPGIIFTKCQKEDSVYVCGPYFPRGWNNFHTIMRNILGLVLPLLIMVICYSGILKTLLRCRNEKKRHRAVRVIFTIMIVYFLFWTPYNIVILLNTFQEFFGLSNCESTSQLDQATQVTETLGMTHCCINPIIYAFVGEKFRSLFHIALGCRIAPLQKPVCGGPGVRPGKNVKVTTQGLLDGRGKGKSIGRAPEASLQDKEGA
binder,measurement,setting,value
"D1-1/LO (antibody, V domains shown, The suffix '/LO' is not explained) VH: QVQLVQSGAEVKKPGASVKVSCKASGYTFTGYYMHWVRQAPGQGLEWMGWINPNSGVTKYAQKFQGRVTMTRDTSTSTVYMELSSLRSEDTAVYYCATGGFGYWGEGTLVTVSS VL: LPVLTQPPSVSKGLRQTATLTCTGNSNNVGNQGAAWLQQHQGQPPKLLSYRNHNRPSGVSERFSPSRSGDTSSLTITGLQPEDEADYYCLAWDSSLRAFVFGTGTKLTVL",EC50,[1],0.13 nM
same,"IC50 in chemotaxis assay using mouse WEHI cells, ligand mouse MCP-1 (0.7 nM)",[2],35 pM
same,"IC50 in chemotaxis assay using human THP-1 cells, ligand MCP-1 (3 nM)",[3],130 pM
same,"IC50 in chemotaxis assay using human THP-1 cells, ligand MCP-3 (1.1 nM)",[3],100 pM
same,EC50,[4],4.8 nM
"D1-2/LO (antibody, V domains shown, tested as IgG. '/LO' not explained) VH: QVQLVQSGAEVKKPGASVKVSCKASGYTFTGYHMHWVRQAPGQGLEWMGIINPSGGSTSYAQKFQGRVTMTRDTSTSTVYMELSSLRSEDTAVYYCATGGFGYWGEGTLVTVSS VL: LPVLTQPPSVSKGLRQTATLTCTGNSNNVGNQGAAWLQQHQGQPPKLLSYRNHNRPSGVSERFSPSRSGDTSSLTITGLQPEDEADYYCLAWDSSLRAFVFGTGTKLTVL",EC50,[1],16 nM
same,EC50,[4],81 nM
"D1-4/LO (antibody, V domains shown, tested as IgG. '/LO' not explained) VH: QVQLVQSGAEVKKPGASVKVSCKASGYTFTGYYMHWVRQAPGQGLEWMGIINPSGGSTSYAQKFQGRVTMTRDTSTSTVYMELSSLRSEDTAVYYCATGGFGYWGEGTLVTVSS VL: LPVLTQPPSVSKGLRQTATLTCTGNSNNVGNQGAAWLQQHQGQPPKLLSYRNHNRPSGVSERFSPSRSGDTSSLTITGLQPEDEADYYCLAWDSSLRAFVFGTGTKLTVL",EC50,[1],1.6 nM
"D1-6/LO (antibody, V domains shown, tested as IgG. '/LO' not explained) VH: QVQLVQSGAEVKKPGASVKVSCKASGYTFTGYHMHWVRQAPGQGLEWMGIINPSSGSTKYAQKFQGRVTMTRDTSTSTVYMELSSLRSEDTAVYYCATGGFGYWGEGTLVTVSS VL: LPVLTQPPSVSKGLRQTATLTCTGNSNNVGNQGAAWLQQHQGQPPKLLSYRNHNRPSGVSERFSPSRSGDTSSLTITGLQPEDEADYYCLAWDSSLRAFVFGTGTKLTVL",EC50,[1],3.5 nM
"1G11 (antibody, human IgG1, V domains shown) VH: EVQLVESGAEVKKPGASVKVSCKASGYIFTGYYIHWVRQAPGQGLEWMGWINPNNGVTKYAEKFQGRVTMTRDTSITTAYMDLSRLRSDDTAIYYCATGGFEYWGQGTLVTVSS VL: LPVLTQPPSVSKGLRQTATLTCTGNSNNVGNQGAAWLQQHQGQPPKLLSYRNHNRPSGVSERFSPSRSGDTSSLTITGLQPEDEADYYCLAWDSSLRAFVFGTGTKLTVL","IC50 in calcium flux assay using human THP-1 cells, ligand MCP-1 (2.5 nM)",[5],750 pM
same,"IC50 in calcium flux assay using human THP-1 cells, ligand MCP-3 (22 nM)",[5],250 pM
same,"IC50 in calcium flux assay using human THP-1 cells, ligand MCP-5 (0.43 nM)",[5],560 pM
same,IC50 on MCP-1 (3 nM) induced THP-1 cell migration,[6],79 pM
same,IC50 on MCP-5 (6 ng/ml) induced THP-1 cell migration,[6],261 pM
same,EC50,[1],0.34 nM
same,"IC50 in chemotaxis assay using human THP-1 cells, ligand MCP-1 (3 nM)",[3],80 pM
same,"IC50 in chemotaxis assay using human THP-1 cells, ligand MCP-2 (6.7 nM)",[3],160 pM
same,"IC50 in chemotaxis assay using human THP-1 cells, ligand MCP-3 (1.1 nM)",[3],70 pM
same,"IC50 in chemotaxis assay using human THP-1 cells, ligand MCP-4 (35 nM)",[3],60 pM
same,"IC50 in chemotaxis assay using human THP-1 cells, ligand MCP-5 (0.65 nM)",[3],260 pM
"1B2 (antibody, human IgG1, V domains shown) VH: EVQLVESGAEVKKPGASVKVSCKASGYTFTGYYMNWVRQAPGQGLEWMGWINPNSGGTKYAQKFQGRVTMTSDTSINTAYMELSRLRYDDTAVYYCATGGFQHWGQGTLVTVSS VL: LPVLTQPPSVSKGLRQTATLTCTGNSNNVGNQGAAWLQQHQGQPPKLLSYRNHNRPSGVSERFSPSRSGDTSSLTITGLQPEDEADYYCLAWDSSLRAFVFGTGTKLTVL","IC50 in calcium flux assay using human THP-1 cells, ligand MCP-1 (2.5 nM)",[5],920 pM
same,"IC50 in calcium flux assay using human THP-1 cells, ligand MCP-3 (22 nM)",[5],290 pM
same,"IC50 in calcium flux assay using human THP-1 cells, ligand MCP-5 (0.43 nM)",[5],890 pM
same,IC50 on MCP-1 (3 nM) induced THP-1 cell migration,[6],87 pM
same,IC50 on MCP-5 (3 nM) induced THP-1 cell migration,[6],197 pM
same,EC50,[1],0.36 nM
same,"IC50 in chemotaxis assay using human THP-1 cells, ligand MCP-1 (3 nM)",[3],90 pM
same,"IC50 in chemotaxis assay using human THP-1 cells, ligand MCP-2 (6.7 nM)",[3],60 pM
same,"IC50 in chemotaxis assay using human THP-1 cells, ligand MCP-3 (1.1 nM)",[3],40 pM
same,"IC50 in chemotaxis assay using human THP-1 cells, ligand MCP-4 (35 nM)",[3],50 pM
same,"IC50 in chemotaxis assay using human THP-1 cells, ligand MCP-5 (0.65 nM)",[3],200 pM
"1H5 (antibody, V domains shown, tested as IgG) VH: EVQLVQSGAEVKKPGASVKVSCKASGYTFTSYYMHWVRQAPGQGLEWMGIINPSGGSTSYAHKFQGRVTMTRDTSTSTVYMELSSLRSEDTAVYYCARGGHVLRFLEWLGLEGPFDYWGQGTLVTVSS VL: LPVLTQPPSVSKGLRQTATLTCTGNSNNVGNQGAAWLQQHQGQPPKLLSYRNHNRPSGVSERFSPSRSGDTSSLTITGLQPEDEADYYCLAWDSSLRAFVFGTGTKLTVL",IC50 on MCP-1 (3 nM) induced THP-1 cell migration,[6],109 pM
same,IC50 on MCP-2 (30 ng/ml) induced THP-1 cell migration,[6],1.9 nM
same,IC50 on MCP-3 (6 ng/ml) induced THP-1 cell migration,[6],2.6 nM
same,IC50 on MCP-4 (200 ng/ml) induced THP-1 cell migration,[6],1.4 nM
same,IC50 on MCP-5 (6 ng/ml) induced THP-1 cell migration,[6],349 pM
same,EC50,[1],1.3 nM
"1B11 (antibody, V domains shown, tested as IgG) VH: QVQLVESGGGVVQPGRSLRLSCAASGFTFSSYAMHWVRQAPGKGLEWVAVISYDGSNKYYADSVKGRFTISRDNSKNTLYLQMNSLKAEDTAVYYCATAAAGPFDYWGQGTTVTVSS VL: LPVLTQPPSVSKGLRQTATLTCTGNSNNVGNQGAAWLQQHQGQPPKLLSYRNHNRPSGVSERFSPSRSGDTSSLTITGLQPEDEADYYCLAWDSSLRAFVFGTGTKLTVL",EC50,[1],2.3 nM
"42G7 (antibody, V domains shown, tested as IgG) VH: QVQLVQSGAEVKKPGASVKVSCKASGYTFSSYYMHWVRQAPGQGLEWMGIINPSGGNTSYAQKFQGRVTMTRDTSTSTVYMELSSLRSEDTAVYYCARGGYQLPHGRARAFDMWGQGTMVTVSS VL: AIRMTQSPLSLPVTLGQPASISCTSSQSLVYRDGTTYLNWFQQRPGQSPRRLIYKVSNRDSGVPDRFTGSGSGTTFTLTISRVEAEDVGIYYCMQGTHWPLTFGQGTKVEI",EC50,[1],15 nM
"43D12 (antibody, V domains shown, tested as IgG; 27/28 '43D12'; the text calls the same pair '43G12'; also called 43G12) VH: EVQLVESGGGLVQPGGSLRLSCVASGFTFSDYWMSWVRQAPGKGLEWVANIKKDGSVNYYVDSVKGRFTISRDNAKNSLYLQMNSLRAEDTAVYYCTRFDYWGQGTLVTVSS VL: QAGLTQPPSVSKGLRQTATLTCTGNSNNVGNQGAAWLQQHQGHPPKLLFYRNNNRASGISERLSASRSGNTASLTITGLQPEDEADYYCLTWDSSLSVVVFGGGTKLTVL",EC50,[1],1.8 nM
"54A9 (antibody, V domains shown, tested as IgG) VH: VQLVESGAEVKKPGASVKVSCKASGYTFSSHYMHWVRQAPGQGLEWMGIINPSGGSTIYAQKFQGRVTINADESTSTAYMELSSLGSDDTAVYYCARAAGGAVAGHGARFDYWGQGTLVTVSS VL: LPVLTQPASVSGSPGQSITISCTGTSSDVGGYNYVSWYQQHPGKAPKLMIYDVSNRPSGVSNRFSGSKSGNTASLTISGLQAEDEADYYCSSYRRSSTLVFGGGTKLTVL",EC50,[1],0.53 nM
"D1-7/LO (antibody, V domains shown, tested as IgG. '/LO' not explained) VH: QVQLVQSGAEVKKPGASVKVSCKASGYTFTGYYMHWVRQAPGQGLEWMGWINPNSGVTKYAQKFQGRVTMTRDTSTSTVYMELSSLRSEDTAVYYCATGSGGGTMDVWGEGTLVTVSS VL: LPVLTQPPSVSKGLRQTATLTCTGNSNNVGNQGAAWLQQHQGQPPKLLSYRNHNRPSGVSERFSPSRSGDTSSLTITGLQPEDEADYYCLAWDSSLRAFVFGTGTKLTVL",EC50,[1],0.08 nM
"1A2 (antibody, V domains shown, tested as IgG) VH: EVQLVQSGAEVKKPGASVKVSCKASGYTFTSYYMHWVRQAPGQGLEWMGIINPSGGSTSYAQKFQGRVTMTRDTSTSTVYMELSSLRSEDTAVYYCATGSGGGTMDVWGQGTTVTVSS VL: LPVLTQPPSVSKGLRQTATLTCTGNSNNVGNQGAAWLQQHQGQPPKLLSYRNHNRPSGVSERFSPSRSGDTSSLTITGLQPEDEADYYCLAWDSSLRAFVFGTGTKLTVL",EC50,[1],2.9 nM
